Assay results: IntAct's records for PubMed 35512704

B1: Mothers against decapentaplegic homolog 4 (Homo sapiens), Q13485 (parent)
chain: MDNMSITNTPTSNDACLSIVHSLMCHRQGGESETFAKRAIESLVKKLKEKKDELDSLITAITTNGAHPSKCVTIQRTLDGRLQVAGRKGFPHVIYARLWRWPDLHKNELKHVKYCQYAFDLKCDSVCVNPYHYERVVSPGIDLSGLTLQSNAPSSMMVKDEYVHDFEGQPSLSTEGHSIQTIQHPPSNRASTETYSTPALLAPSESNATSTANFPNIPVASTSQPASILGGSHSEGLLQIASGPQPGQQQNGFTGQPATYHHNSTTTWTGSRTAPYTPNLPHHQNGHLQHHPPMPPHPGHYWPVHNELAFQPPISNHPAPEYWCSIAYFEMDVQVGETFKVPSSCPIVTVDGYVDPSGGDRFCLGQLSNVHRTEAIERARLHIGKGVQLECKGEGDVWVRCLSDHAVFVQSYYLDREAGRAPGDAVHKIYPSAYIKVFDLRQCHRQMQQQAATAQAAAAAQAAAVAGNIPGPGSVGGIAPAISLSAAAGIGVDDLRRLCILRMSFVKGWGPDYPRQSIKETPCWIEIHLHRALQLLDEVLHTMPIADPQPLD
partner: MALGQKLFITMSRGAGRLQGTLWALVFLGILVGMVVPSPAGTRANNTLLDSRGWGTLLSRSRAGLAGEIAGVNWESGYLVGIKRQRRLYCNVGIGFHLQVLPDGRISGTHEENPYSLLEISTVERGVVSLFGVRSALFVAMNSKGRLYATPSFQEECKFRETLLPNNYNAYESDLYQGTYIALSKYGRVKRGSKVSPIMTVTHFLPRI
B2: Mothers against decapentaplegic homolog 4 (Homo sapiens), Q13485 (parent)
chain: B1 chain
partner: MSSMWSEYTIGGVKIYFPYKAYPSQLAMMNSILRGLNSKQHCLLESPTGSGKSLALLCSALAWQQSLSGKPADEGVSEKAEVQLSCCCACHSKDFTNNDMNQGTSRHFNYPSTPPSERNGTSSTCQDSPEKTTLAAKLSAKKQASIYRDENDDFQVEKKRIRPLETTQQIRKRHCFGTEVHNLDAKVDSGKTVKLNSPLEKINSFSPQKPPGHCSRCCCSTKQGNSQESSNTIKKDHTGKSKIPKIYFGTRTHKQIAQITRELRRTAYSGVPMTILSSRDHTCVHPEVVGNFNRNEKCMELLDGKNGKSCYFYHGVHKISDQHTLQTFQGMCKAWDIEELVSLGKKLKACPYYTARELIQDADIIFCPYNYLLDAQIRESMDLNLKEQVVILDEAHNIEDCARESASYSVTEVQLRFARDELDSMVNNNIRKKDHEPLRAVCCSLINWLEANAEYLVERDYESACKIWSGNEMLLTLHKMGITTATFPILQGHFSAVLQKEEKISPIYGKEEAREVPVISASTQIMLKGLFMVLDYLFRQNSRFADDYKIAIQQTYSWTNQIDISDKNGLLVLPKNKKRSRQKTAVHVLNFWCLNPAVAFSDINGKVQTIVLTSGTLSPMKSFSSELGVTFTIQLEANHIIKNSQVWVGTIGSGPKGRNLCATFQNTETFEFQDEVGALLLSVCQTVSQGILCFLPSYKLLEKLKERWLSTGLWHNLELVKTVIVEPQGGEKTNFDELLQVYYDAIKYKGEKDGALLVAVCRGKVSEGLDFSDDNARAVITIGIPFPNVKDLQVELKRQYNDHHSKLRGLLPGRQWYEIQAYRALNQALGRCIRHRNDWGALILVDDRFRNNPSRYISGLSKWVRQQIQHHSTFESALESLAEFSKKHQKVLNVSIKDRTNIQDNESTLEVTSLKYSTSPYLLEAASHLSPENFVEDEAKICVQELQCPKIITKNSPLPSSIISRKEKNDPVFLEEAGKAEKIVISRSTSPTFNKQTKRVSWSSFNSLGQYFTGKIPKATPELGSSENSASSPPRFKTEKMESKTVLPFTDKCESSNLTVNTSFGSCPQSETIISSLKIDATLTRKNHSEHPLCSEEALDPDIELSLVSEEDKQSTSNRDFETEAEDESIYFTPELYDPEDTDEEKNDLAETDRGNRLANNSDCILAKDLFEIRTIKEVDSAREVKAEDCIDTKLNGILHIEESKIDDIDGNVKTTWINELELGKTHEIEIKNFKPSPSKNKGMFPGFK
B3: Mothers against decapentaplegic homolog 4 (Homo sapiens), Q13485 (parent)
chain: B1 chain
partner: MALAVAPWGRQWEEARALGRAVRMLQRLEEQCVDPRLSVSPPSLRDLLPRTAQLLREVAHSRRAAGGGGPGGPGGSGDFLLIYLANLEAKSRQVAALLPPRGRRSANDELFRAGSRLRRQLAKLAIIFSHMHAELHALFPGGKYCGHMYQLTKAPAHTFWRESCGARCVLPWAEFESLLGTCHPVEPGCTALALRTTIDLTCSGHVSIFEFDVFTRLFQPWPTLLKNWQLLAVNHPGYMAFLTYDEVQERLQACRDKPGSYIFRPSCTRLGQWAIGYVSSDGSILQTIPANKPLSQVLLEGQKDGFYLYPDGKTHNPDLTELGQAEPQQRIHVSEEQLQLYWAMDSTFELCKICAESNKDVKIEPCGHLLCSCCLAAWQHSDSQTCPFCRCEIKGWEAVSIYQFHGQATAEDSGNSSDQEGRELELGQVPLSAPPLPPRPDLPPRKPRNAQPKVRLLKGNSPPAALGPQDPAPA
B4: Mothers against decapentaplegic homolog 4 (Homo sapiens), Q13485 (parent)
chain: B1 chain
partner: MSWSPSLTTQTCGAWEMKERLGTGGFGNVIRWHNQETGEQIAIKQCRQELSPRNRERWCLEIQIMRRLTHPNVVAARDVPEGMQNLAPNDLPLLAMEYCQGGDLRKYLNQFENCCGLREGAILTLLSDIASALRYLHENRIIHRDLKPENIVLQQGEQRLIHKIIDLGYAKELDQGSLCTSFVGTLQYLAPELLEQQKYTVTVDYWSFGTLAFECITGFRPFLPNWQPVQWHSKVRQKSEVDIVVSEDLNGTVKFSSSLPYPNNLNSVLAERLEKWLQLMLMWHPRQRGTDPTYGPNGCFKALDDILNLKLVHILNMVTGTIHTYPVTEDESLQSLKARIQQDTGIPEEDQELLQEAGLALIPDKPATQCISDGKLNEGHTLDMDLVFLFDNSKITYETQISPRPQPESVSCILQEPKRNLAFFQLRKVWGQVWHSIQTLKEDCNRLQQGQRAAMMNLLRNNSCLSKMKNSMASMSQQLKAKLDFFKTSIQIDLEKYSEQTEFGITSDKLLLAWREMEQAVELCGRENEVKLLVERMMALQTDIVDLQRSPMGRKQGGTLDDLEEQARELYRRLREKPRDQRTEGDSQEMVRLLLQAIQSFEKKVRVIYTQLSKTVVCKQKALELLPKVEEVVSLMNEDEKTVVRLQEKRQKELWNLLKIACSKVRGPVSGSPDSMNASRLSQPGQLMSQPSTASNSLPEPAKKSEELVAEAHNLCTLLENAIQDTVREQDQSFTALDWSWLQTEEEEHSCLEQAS
B5: Mothers against decapentaplegic homolog 4 (Homo sapiens), Q13485 (parent)
chain: B1 chain
partner: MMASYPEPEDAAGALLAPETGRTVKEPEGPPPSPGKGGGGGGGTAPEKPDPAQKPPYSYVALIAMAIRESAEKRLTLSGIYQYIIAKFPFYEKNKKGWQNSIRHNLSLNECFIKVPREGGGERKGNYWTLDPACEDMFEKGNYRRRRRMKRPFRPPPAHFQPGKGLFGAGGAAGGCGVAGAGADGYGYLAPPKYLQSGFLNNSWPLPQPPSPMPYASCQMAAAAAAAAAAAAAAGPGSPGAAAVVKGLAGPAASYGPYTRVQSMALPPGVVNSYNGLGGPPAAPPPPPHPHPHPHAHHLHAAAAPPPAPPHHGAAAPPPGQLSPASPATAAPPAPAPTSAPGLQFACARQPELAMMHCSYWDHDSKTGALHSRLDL
B6: 14-3-3 protein zeta/delta (Homo sapiens), P63104 (parent)
chain: MDKNELVQKAKLAEQAERYDDMAACMKSVTEQGAELSNEERNLLSVAYKNVVGARRSSWRVVSSIEQKTEGAEKKQQMAREYREKIETELRDICNDVLSLLEKFLIPNASQAESKVFYLKMKGDYYRYLAEVAAGDDKKGIVDQSQQAYQEAFEISKKEMQPTHPIRLGLALNFSVFYYEILNSPEKACSLAKTAFDEAIAELDTLSEESYKDSTLIMQLLRDNLTLWTSDTQGDEAEAGEGGEN
B7: Mothers against decapentaplegic homolog 4 (Homo sapiens), Q13485 (parent)
chain: B1 chain
partner: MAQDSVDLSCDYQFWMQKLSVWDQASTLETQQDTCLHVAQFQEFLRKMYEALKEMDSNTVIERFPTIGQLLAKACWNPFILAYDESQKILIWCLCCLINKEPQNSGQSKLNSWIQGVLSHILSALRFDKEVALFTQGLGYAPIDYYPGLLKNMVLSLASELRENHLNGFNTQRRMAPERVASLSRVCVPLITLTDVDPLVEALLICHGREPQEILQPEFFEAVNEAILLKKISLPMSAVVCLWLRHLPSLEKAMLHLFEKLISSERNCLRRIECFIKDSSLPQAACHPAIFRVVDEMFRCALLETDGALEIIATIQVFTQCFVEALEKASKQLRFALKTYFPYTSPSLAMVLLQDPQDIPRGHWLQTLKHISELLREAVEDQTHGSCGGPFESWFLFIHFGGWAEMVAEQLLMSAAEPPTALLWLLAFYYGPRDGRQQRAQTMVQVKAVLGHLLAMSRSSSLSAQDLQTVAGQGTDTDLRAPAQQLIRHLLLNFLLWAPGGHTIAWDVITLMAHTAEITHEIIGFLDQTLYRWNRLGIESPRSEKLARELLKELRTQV
B8: Mothers against decapentaplegic homolog 4 (Homo sapiens), Q13485 (parent)
chain: B1 chain
partner: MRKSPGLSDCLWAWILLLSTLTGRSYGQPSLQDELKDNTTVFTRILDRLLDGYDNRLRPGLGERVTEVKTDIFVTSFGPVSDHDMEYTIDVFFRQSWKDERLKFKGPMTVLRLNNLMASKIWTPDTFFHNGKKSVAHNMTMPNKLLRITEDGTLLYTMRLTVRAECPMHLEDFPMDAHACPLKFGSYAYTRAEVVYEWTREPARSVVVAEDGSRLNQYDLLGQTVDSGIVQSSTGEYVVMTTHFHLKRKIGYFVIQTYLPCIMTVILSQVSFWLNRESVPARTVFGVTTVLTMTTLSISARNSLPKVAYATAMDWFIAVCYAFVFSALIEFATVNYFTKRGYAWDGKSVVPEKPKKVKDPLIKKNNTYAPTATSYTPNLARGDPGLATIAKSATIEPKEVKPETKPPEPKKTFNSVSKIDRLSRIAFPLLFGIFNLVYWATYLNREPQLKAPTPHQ

Variants of: B1
Settings: with fgf6_human FGF6, P10767

Row | effect of a mutation on the interaction | Variant
1 | with no effect | R361C

Variants of: B1
Settings: with fgf6_human FGF6, P10767
Remark: another data set of the same source

Row | effect of a mutation on the interaction | Variant
2 | with no effect | R361H

Variants of: B2
Settings: with fancj_human BRIP1, Q9BX63

Row | effect of a mutation on the interaction | Variant
3 | with no effect | G386D

Variants of: B2
Settings: with fancj_human BRIP1, Q9BX63
Remark: another data set of the same source

Row | effect of a mutation on the interaction | Variant
4 | with no effect | D351H

Variants of: B3
Settings: with cblc_human CBLC

Row | effect of a mutation on the interaction | Variant
5 | with no effect | G386D

Variants of: B3
Settings: with cblc_human CBLC
Remark: another data set of the same source

Row | effect of a mutation on the interaction | Variant
6 | with no effect | D351H

Variants of: B3
Settings: with cblc_human CBLC
Remark: another data set of the same source

Row | effect of a mutation on the interaction | Variant
7 | with no effect | R361H

Variants of: B3
Settings: with cblc_human CBLC
Remark: another data set of the same source

Row | effect of a mutation on the interaction | Variant
8 | with no effect | R361C

Variants of: B4
Settings: with ikkb_human IKBKB

Row | effect of a mutation on the interaction | Variant
9 | with no effect | R361H

Variants of: B4
Settings: with ikkb_human IKBKB
Remark: another data set of the same source

Row | effect of a mutation on the interaction | Variant
10 | with no effect | R361C

Variants of: B4
Settings: with ikkb_human IKBKB
Remark: another data set of the same source

Row | effect of a mutation on the interaction | Variant
11 | with no effect | D351H

Variants of: B4
Settings: with ikkb_human IKBKB
Remark: another data set of the same source

Row | effect of a mutation on the interaction | Variant
12 | with no effect | G386D

Variants of: B5
Settings: with foxl2_human FOXL2, P58012

Row | effect of a mutation on the interaction | Variant
13 | with no effect | R361C

Variants of: B5
Settings: with foxl2_human FOXL2, P58012
Remark: another data set of the same source

Row | effect of a mutation on the interaction | Variant
14 | with no effect | R361H

Variants of: B5
Settings: with foxl2_human FOXL2, P58012
Remark: another data set of the same source

Row | effect of a mutation on the interaction | Variant
15 | with no effect | D351H

Variants of: B5
Settings: with foxl2_human FOXL2, P58012
Remark: another data set of the same source

Row | effect of a mutation on the interaction | Variant
16 | with no effect | G386D

Variants of: B6
Settings: with braf_human BRAF

Row | effect of a mutation on the interaction | Variant
17 | disrupting interaction strength | K49E

Variants of: B7
Settings: with fancc_human FANCC

Row | effect of a mutation on the interaction | Variant
18 | with no effect | D351H

Variants of: B7
Settings: with fancc_human FANCC
Remark: another data set of the same source

Row | effect of a mutation on the interaction | Variant
19 | with no effect | R361C

Variants of: B7
Settings: with fancc_human FANCC
Remark: another data set of the same source

Row | effect of a mutation on the interaction | Variant
20 | with no effect | R361H

Variants of: B7
Settings: with fancc_human FANCC
Remark: another data set of the same source

Row | effect of a mutation on the interaction | Variant
21 | with no effect | G386D

Variants of: B8
Settings: with gbra1_human GABRA1, P14867

Row | effect of a mutation on the interaction | Variant
22 | with no effect | R361H

Variants of: B8
Settings: with gbra1_human GABRA1, P14867
Remark: another data set of the same source

Row | effect of a mutation on the interaction | Variant
23 | with no effect | R361C

Variants of: B8
Settings: with gbra1_human GABRA1, P14867
Remark: another data set of the same source

Row | effect of a mutation on the interaction | Variant
24 | with no effect | G386D

Variants of: B8
Settings: with gbra1_human GABRA1, P14867
Remark: another data set of the same source

Row | effect of a mutation on the interaction | Variant
25 | with no effect | D351H
